B1: sigR-yfp-pET28a (+) protein (SYP) (natural protein)
chain: not shown
modifications: biotinylated for the biolayer interferometry only
B2: sigma factor σ^R (natural protein)
chain: not shown
modifications: biotinylated before capture on streptavidin biosensor tips

Assays:
[1] = target: T1, zinc-binding anti-sigma (ZAS) protein RsrA (S. coelicolor M145, UniProt Q7AKG8 1-105); test: BLI
T1 chain: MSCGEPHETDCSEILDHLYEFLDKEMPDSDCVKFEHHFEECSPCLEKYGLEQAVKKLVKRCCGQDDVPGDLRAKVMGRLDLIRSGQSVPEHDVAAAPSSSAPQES

[2] = target: T2, rsrA-cfp-pET28a (+) protein (RCP) (S. coelicolor M145, UniProt Q7AKG8 1-105); test: BLI
T2 chain: T1 chain

| Binder | Kd [1] | Kd [2] |
| --- | --- | --- |
| B1 | 52 nM | – |
| B2 | 47 nM | 72 nM |
